Reference: publication PMC9482650, “Quantitative fragmentomics allow affinity mapping of interactomes” (Nature Communications, 2022)

T1: SHROOM4, Q9ULL8
T1 sequence (Q9ULL8 5-102, limits assumed, looked up): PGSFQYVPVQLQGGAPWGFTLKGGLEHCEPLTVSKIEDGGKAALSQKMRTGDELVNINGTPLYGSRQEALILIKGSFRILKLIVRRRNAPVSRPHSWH

T2: USH1C_3, Q9Y6N9
T2 sequence (Q9Y6N9 447-547, limits assumed, looked up): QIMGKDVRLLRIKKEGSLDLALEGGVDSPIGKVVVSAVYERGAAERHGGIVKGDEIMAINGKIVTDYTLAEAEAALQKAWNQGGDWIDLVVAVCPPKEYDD

T3: PDZD2_5, O15018
T3 sequence (O15018 2617-2716, limits assumed, looked up): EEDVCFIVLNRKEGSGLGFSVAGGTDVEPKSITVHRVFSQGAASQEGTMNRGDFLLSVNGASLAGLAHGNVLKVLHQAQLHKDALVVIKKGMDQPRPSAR

T4: MPDZ_6, O75970
T4 sequence (O75970 1003-1099, limits assumed, looked up): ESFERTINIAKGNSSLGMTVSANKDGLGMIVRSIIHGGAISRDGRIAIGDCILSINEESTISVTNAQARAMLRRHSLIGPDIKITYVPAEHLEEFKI

T5: MPP5, Q8N3R9
T5 sequence (Q8N3R9 251-346, limits assumed, looked up): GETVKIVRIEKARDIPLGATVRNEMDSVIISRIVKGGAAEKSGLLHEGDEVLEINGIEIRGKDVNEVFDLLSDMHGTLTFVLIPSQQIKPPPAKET

T6: GRIP1_1, Q9Y3R0
T6 sequence (Q9Y3R0 48-146, limits assumed, looked up): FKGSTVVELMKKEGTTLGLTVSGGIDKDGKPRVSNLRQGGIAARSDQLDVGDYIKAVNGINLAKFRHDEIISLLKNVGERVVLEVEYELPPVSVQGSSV

T7: PDZD4, Q76G19
T7 sequence (Q76G19 125-224, limits assumed, looked up): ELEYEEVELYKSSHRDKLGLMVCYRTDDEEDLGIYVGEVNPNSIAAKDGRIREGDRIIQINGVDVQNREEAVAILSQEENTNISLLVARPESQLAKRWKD

T8: PREX2_2, Q70Z35
T8 sequence (Q70Z35 672-764, limits assumed, looked up): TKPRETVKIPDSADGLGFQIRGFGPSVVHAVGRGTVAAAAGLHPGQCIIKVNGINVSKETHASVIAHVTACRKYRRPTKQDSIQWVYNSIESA

T9: PARD6B, Q9BYG5
T9 sequence (Q9BYG5 152-260, limits assumed, looked up): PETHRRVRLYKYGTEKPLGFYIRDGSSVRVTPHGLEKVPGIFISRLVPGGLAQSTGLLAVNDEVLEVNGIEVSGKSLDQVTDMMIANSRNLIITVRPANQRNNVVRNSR

T10: MPDZ_2, O75970
T10 sequence (O75970 252-347, limits assumed, looked up): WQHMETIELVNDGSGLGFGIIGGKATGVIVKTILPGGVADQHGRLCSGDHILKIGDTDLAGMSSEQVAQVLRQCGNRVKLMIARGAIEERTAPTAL

T11: SHANK3, Q9BYB0
T11 sequence (Q9BYB0 641-750, limits assumed, looked up): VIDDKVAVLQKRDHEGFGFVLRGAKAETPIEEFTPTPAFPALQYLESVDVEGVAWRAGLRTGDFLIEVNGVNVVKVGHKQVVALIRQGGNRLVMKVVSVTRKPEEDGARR


Biological target: T1, SHROOM4, Q9ULL8
Assay: holdup assay
Parameters: key: below the threshold = too weak to quantify, mostly under pKd 3.1 to 4
Settings: plain residues with an end cap or a label only (N-terminal biotin on a linker: ttds)

Question: With SGGKRKETLV [NET1, Q7Z628] as the binder, how does the pKd read?
Answer: below the threshold

Biological target: PDZRN4_2, Q6ZMN7
Assay: holdup assay
Parameters: key: below the threshold = too weak to quantify, mostly under pKd 3.1 to 4
Settings: plain residues with an end cap or a label only (N-terminal biotin on a linker: ttds)

Chain of PDZRN4_2, Q6ZMN7 (Q6ZMN7 389-498): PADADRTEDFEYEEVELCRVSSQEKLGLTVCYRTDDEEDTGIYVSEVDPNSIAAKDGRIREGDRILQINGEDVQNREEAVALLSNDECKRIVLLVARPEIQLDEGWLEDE

Question: Which pKd does the source give for SGGKRKETLV [NET1, Q7Z628] here?
Answer: below the threshold

Biological target: T2, USH1C_3, Q9Y6N9
Assay: holdup assay
Parameters: key: below the threshold = too weak to quantify, mostly under pKd 3.1 to 4
Settings: plain residues with an end cap or a label only (N-terminal biotin on a linker: ttds)

Question: For SGGKRKETLV [NET1, Q7Z628], which pKd is on record?
Answer: below the threshold

Biological target: T3, PDZD2_5, O15018
Assay: holdup assay
Parameters: key: below the threshold = too weak to quantify, mostly under pKd 3.1 to 4
Settings: plain residues with an end cap or a label only (N-terminal biotin on a linker: ttds)

Question: SGGKRKETLV [NET1, Q7Z628] was tested. Which pKd did it give?
Answer: below the threshold

Biological target: T4, MPDZ_6, O75970
Assay: holdup assay
Parameters: key: below the threshold = too weak to quantify, mostly under pKd 3.1 to 4
Settings: plain residues with an end cap or a label only (N-terminal biotin on a linker: ttds)

Question: For SGGKRKETLV [NET1, Q7Z628], which pKd is on record?
Answer: below the threshold

Biological target: PREX1_1, Q8TCU6
Assay: holdup assay
Parameters: key: below the threshold = too weak to quantify, mostly under pKd 3.1 to 4
Settings: plain residues with an end cap or a label only (N-terminal biotin on a linker: ttds)

Chain of PREX1_1, Q8TCU6 (Q8TCU6 608-718): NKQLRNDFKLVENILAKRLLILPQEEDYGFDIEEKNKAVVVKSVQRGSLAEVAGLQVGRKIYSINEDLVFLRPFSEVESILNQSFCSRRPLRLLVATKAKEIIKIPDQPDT

Question: How did the pKd turn out when SGGKRKETLV [NET1, Q7Z628] was run?
Answer: below the threshold

Biological target: T5, MPP5, Q8N3R9
Assay: holdup assay
Parameters: key: below the threshold = too weak to quantify, mostly under pKd 3.1 to 4
Settings: plain residues with an end cap or a label only (N-terminal biotin on a linker: ttds)

Question: With SGGKRKETLV [NET1, Q7Z628] as the binder, how does the pKd read?
Answer: below the threshold

Biological target: T6, GRIP1_1, Q9Y3R0
Assay: holdup assay
Parameters: key: below the threshold = too weak to quantify, mostly under pKd 3.1 to 4
Settings: plain residues with an end cap or a label only (N-terminal biotin on a linker: ttds)

Question: For SGGKRKETLV [NET1, Q7Z628], which pKd is on record?
Answer: below the threshold

Biological target: T7, PDZD4, Q76G19
Assay: holdup assay
Parameters: key: below the threshold = too weak to quantify, mostly under pKd 3.1 to 4
Settings: plain residues with an end cap or a label only (N-terminal biotin on a linker: ttds)

Question: For SGGKRKETLV [NET1, Q7Z628], which pKd is on record?
Answer: 3.72

Biological target: Inadl_10, Q8NI35
Assay: holdup assay
Parameters: key: below the threshold = too weak to quantify, mostly under pKd 3.1 to 4
Settings: plain residues with an end cap or a label only (N-terminal biotin on a linker: ado-ado)

Chain of Inadl_10, Q8NI35 (Q8NI35 1673-1763): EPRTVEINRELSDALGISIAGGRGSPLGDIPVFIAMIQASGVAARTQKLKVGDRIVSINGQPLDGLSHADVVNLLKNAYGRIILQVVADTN

Question: For DAAHHDESNC [FMNL3, Q8IVF7], which pKd is on record?
Answer: below the threshold

Question: Which pKd does the source give for EKPIDSETKM [SLC1A3, P43003] here?
Answer: below the threshold

Question: Which pKd does the source give for ELKAEDEVQI [DCHS2, Q6V1P9] here?
Answer: below the threshold

Question: IGHEDLETAV [DGKI, O75912] was tested. Which pKd did it give?
Answer: below the threshold

Question: For PDSYHRRDFW [U2AF2, P26368], which pKd is on record?
Answer: below the threshold

Same assay, conditions: plain residues with an end cap or a label only (N-terminal biotin on a linker: ttds)

Question: For SGGKRKETLV [NET1, Q7Z628], which pKd is on record?
Answer: below the threshold

Biological target: MAGI1_3, Q96QZ7
Assay: holdup assay
Parameters: key: below the threshold = too weak to quantify, mostly under pKd 3.1 to 4
Settings: plain residues with an end cap or a label only (N-terminal biotin on a linker: ttds)

Chain of MAGI1_3, Q96QZ7 (Q96QZ7 638-725): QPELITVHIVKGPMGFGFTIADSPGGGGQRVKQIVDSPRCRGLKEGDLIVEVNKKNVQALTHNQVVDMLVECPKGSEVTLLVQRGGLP

Question: SGGKRKETLV [NET1, Q7Z628] was tested. Which pKd did it give?
Answer: 4.91

Biological target: MAGI3_3, Q5TCQ9
Assay: holdup assay
Parameters: key: below the threshold = too weak to quantify, mostly under pKd 3.1 to 4
Settings: plain residues with an end cap or a label only (N-terminal biotin on a linker: ttds)

Chain of MAGI3_3, Q5TCQ9 (Q5TCQ9 572-655): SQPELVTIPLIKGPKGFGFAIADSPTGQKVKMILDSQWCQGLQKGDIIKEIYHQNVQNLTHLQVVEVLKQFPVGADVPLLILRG

Question: With SGGKRKETLV [NET1, Q7Z628] as the binder, how does the pKd read?
Answer: below the threshold

Biological target: PDLIM4, P50479
Assay: holdup assay
Parameters: key: below the threshold = too weak to quantify, mostly under pKd 3.1 to 4
Settings: plain residues with an end cap or a label only (N-terminal biotin on a linker: ttds)

Chain of PDLIM4, P50479 (P50479 1-83): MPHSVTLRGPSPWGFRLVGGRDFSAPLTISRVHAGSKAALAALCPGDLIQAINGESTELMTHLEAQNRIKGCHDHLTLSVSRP

Question: Which pKd does the source give for SGGKRKETLV [NET1, Q7Z628] here?
Answer: below the threshold

Biological target: T8, PREX2_2, Q70Z35
Assay: holdup assay
Parameters: key: below the threshold = too weak to quantify, mostly under pKd 3.1 to 4
Settings: plain residues with an end cap or a label only (N-terminal biotin on a linker: ttds)

Question: With SGGKRKETLV [NET1, Q7Z628] as the binder, how does the pKd read?
Answer: 3.79

Biological target: T9, PARD6B, Q9BYG5
Assay: holdup assay
Parameters: key: below the threshold = too weak to quantify, mostly under pKd 3.1 to 4
Settings: plain residues with an end cap or a label only (N-terminal biotin on a linker: ttds)

Question: Which pKd does the source give for SGGKRKETLV [NET1, Q7Z628] here?
Answer: below the threshold

Biological target: T10, MPDZ_2, O75970
Assay: holdup assay
Parameters: key: below the threshold = too weak to quantify, mostly under pKd 3.1 to 4
Settings: plain residues with an end cap or a label only (N-terminal biotin on a linker: ttds)

Question: With SGGKRKETLV [NET1, Q7Z628] as the binder, how does the pKd read?
Answer: 3.75

Biological target: Inadl_7, Q8NI35
Assay: holdup assay
Parameters: key: below the threshold = too weak to quantify, mostly under pKd 3.1 to 4
Settings: plain residues with an end cap or a label only (N-terminal biotin on a linker: ttds)

Chain of Inadl_7, Q8NI35 (Q8NI35 1219-1332): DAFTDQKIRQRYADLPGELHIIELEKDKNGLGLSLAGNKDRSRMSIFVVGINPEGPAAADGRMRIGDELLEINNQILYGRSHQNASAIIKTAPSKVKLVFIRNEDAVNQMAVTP

Question: For SGGKRKETLV [NET1, Q7Z628], which pKd is on record?
Answer: below the threshold

Biological target: PDLIM1, O00151
Assay: holdup assay
Parameters: key: below the threshold = too weak to quantify, mostly under pKd 3.1 to 4
Settings: plain residues with an end cap or a label only (N-terminal biotin on a linker: ado-ado)

Chain of PDLIM1, O00151 (O00151 1-87): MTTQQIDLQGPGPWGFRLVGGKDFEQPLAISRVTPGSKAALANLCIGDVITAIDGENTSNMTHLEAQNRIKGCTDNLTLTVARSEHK

Question: How did the pKd turn out when DAAHHDESNC [FMNL3, Q8IVF7] was run?
Answer: below the threshold

Question: EKPIDSETKM [SLC1A3, P43003] was tested. Which pKd did it give?
Answer: below the threshold

Question: ELKAEDEVQI [DCHS2, Q6V1P9] was tested. Which pKd did it give?
Answer: below the threshold

Question: Which pKd does the source give for IGHEDLETAV [DGKI, O75912] here?
Answer: below the threshold

Question: PDSYHRRDFW [U2AF2, P26368] was tested. Which pKd did it give?
Answer: below the threshold

Same assay, conditions: plain residues with an end cap or a label only (N-terminal biotin on a linker: ttds)

Question: Which pKd does the source give for SGGKRKETLV [NET1, Q7Z628] here?
Answer: below the threshold

Biological target: MAST3, O60307
Assay: holdup assay
Parameters: key: below the threshold = too weak to quantify, mostly under pKd 3.1 to 4
Settings: plain residues with an end cap or a label only (N-terminal biotin on a linker: ttds)

Chain of MAST3, O60307 (O60307 945-1048): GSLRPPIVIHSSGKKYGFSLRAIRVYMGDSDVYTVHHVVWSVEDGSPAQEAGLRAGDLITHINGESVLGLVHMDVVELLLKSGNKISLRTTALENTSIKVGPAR

Question: With SGGKRKETLV [NET1, Q7Z628] as the binder, how does the pKd read?
Answer: below the threshold

Biological target: T11, SHANK3, Q9BYB0
Assay: holdup assay
Parameters: key: below the threshold = too weak to quantify, mostly under pKd 3.1 to 4
Settings: plain residues with an end cap or a label only (N-terminal biotin on a linker: ttds)

Question: Which pKd does the source give for SGGKRKETLV [NET1, Q7Z628] here?
Answer: below the threshold

Biological target: SCRIB_3, Q14160
Assay: holdup assay
Parameters: key: below the threshold = too weak to quantify, mostly under pKd 3.1 to 4
Settings: plain residues with an end cap or a label only (N-terminal biotin on a linker: ado-ado)

Chain of SCRIB_3, Q14160 (Q14160 999-1103): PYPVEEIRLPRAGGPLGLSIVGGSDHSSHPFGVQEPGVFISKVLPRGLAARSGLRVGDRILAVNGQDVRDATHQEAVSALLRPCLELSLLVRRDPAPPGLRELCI

Question: Which pKd does the source give for DAAHHDESNC [FMNL3, Q8IVF7] here?
Answer: below the threshold

Question: EKPIDSETKM [SLC1A3, P43003] was tested. Which pKd did it give?
Answer: 3.58

Question: Which pKd does the source give for ELKAEDEVQI [DCHS2, Q6V1P9] here?
Answer: below the threshold

Question: How did the pKd turn out when IGHEDLETAV [DGKI, O75912] was run?
Answer: 4.91

Question: With PDSYHRRDFW [U2AF2, P26368] as the binder, how does the pKd read?
Answer: below the threshold

Same assay, conditions: plain residues with an end cap or a label only (N-terminal biotin on a linker: ttds)

Question: For SGGKRKETLV [NET1, Q7Z628], which pKd is on record?
Answer: 4.31

Biological target: MAGI1_5, Q96QZ7
Assay: holdup assay
Parameters: key: below the threshold = too weak to quantify, mostly under pKd 3.1 to 4
Settings: plain residues with an end cap or a label only (N-terminal biotin on a linker: ttds)

Chain of MAGI1_5, Q96QZ7 (Q96QZ7 986-1098): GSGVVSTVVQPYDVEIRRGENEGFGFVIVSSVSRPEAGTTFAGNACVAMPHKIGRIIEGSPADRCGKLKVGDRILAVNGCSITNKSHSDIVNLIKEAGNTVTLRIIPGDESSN

Question: SGGKRKETLV [NET1, Q7Z628] was tested. Which pKd did it give?
Answer: 4.72

Biological target: DLG5_2, Q8TDM6
Assay: holdup assay
Parameters: key: below the threshold = too weak to quantify, mostly under pKd 3.1 to 4
Settings: plain residues with an end cap or a label only (N-terminal biotin on a linker: ttds)

Chain of DLG5_2, Q8TDM6 (Q8TDM6 714-800): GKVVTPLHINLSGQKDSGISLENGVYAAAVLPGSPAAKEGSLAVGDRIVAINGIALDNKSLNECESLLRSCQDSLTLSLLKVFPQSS

Question: For SGGKRKETLV [NET1, Q7Z628], which pKd is on record?
Answer: 4.58
